# Paper PMC3469819
# Tests used:
# [1] = biological target: truncated CDK9 construct CDK9_(330) (residues 1–330) (human) (UniProt P50750)
# [2] = biological target: full-length human CDK9 (residues 1–372) (human) (UniProt P50750)
# [3] = biological target: full-length human CDK9 (residues 1–372) (human) (UniProt P50750); remark: listed apart in the source
# full-length human CDK9 (residues 1–372) (human), sequence (P50750 whole entry, the tested form may be a part): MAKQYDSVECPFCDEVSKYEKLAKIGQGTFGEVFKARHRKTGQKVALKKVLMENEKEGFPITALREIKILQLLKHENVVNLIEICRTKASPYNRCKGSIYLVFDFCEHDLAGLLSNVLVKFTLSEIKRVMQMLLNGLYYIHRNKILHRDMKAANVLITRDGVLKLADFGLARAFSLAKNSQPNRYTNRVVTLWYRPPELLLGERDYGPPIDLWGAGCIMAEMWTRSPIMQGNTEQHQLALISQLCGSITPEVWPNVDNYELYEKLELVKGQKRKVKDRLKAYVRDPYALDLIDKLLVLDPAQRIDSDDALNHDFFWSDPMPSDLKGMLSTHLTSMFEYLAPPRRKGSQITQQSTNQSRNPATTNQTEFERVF
# truncated CDK9 construct CDK9_(330) (residues 1–330) (human), sequence (P50750 1-330): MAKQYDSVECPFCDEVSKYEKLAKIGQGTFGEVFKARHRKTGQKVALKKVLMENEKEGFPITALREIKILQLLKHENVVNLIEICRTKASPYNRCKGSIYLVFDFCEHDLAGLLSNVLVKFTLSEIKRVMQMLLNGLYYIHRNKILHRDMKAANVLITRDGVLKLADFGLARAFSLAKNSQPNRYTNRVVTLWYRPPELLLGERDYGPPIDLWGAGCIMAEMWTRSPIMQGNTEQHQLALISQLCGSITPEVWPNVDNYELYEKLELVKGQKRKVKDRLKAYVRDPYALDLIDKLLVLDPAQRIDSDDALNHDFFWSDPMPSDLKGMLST
substance,measurement,setting,value
GST-tagged version of the human Pol II CTD (from UniProt P24928 1587-1970) (domain or fragment),"K (M,app) for GST-CTD of the kinase activity of CDK9 (330)/cyclin T (32P incorporation into GST-CTD, fixed ATP)",[1],21.3 µM
same,"K (M,app) for GST-CTD of the kinase activity of CDK9FL/cyclin T (32P incorporation into GST-CTD, fixed ATP)",[2],24.3 µM
same,"K (M, CTD): overall Michaelis constant for GST-CTD of CDK9FL/cyclin T, from initial rates with both GST-CTD and ATP varied",[3],115 µM
